Literature values, collected in patent US20250333489A1 (ANDREMACON S.R.L., priority 2021, published 2025).

Target: T1, EphB4 (Homo sapiens, UniProt P54760)
T1 sequence (P54760 16-987): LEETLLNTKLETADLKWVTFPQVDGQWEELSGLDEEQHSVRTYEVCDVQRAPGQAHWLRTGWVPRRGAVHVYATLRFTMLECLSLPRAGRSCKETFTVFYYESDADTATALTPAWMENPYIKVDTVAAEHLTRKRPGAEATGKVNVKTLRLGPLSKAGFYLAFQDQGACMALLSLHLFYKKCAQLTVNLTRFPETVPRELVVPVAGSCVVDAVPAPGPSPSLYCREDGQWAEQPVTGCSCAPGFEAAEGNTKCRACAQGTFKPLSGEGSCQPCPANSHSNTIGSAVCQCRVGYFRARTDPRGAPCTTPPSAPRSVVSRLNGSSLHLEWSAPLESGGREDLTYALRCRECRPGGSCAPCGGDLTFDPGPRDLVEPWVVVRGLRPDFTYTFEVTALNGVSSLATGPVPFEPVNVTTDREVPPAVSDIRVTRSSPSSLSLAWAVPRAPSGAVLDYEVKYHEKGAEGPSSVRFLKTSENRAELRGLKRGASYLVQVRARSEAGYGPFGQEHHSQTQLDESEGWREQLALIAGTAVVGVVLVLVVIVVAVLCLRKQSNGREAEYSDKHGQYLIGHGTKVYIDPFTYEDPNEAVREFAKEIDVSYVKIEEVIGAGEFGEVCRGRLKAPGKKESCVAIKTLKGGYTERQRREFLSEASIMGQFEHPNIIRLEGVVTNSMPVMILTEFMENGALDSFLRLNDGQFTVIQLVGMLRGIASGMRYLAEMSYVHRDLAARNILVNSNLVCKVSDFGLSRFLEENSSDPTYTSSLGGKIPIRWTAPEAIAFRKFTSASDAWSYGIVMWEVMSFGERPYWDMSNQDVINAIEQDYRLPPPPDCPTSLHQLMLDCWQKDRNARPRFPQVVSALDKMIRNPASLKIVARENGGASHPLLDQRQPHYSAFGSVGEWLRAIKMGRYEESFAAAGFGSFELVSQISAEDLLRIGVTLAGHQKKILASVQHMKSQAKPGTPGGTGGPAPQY
Conditions: read-out: binding affinity of Epo for EphB4 (KD)

- Kd: 880 nM
Substance: Epo: 30.4 kDa glycoprotein produced and secreted mainly by the kidneys; main erythropoietic hormone
